± gives the uncertainty stated by the source.
Experiment: self-splicing fitness, log relative to wild type (ln ratio); higher = more splicing; Tetrahymena group I intron in knt gene, E. coli kanamycin selection, DiMSum; sequences stand for … in CUCUCU…GGAGGGAAAAGUUAUCAGGCAUGCACCUGGUAGCUAGUCUUUAAACCAAUAGAUUGCAUCGGUUUAAAAGGCAAGACCGUCAAAUUGCGGGAAAGGGGUCAACAGCCGUUCAGUACCAAGUCUCAGGGGAAACUUUGAGAUGGCCUUGCAAAGGGUAUGGUAAUAAGCUGACGGACAUGGUCCUAACCACGCAGCCAAGUCCUAAGUCAACAGAUCUUCUGUUGAUAUGGAUGCAGUUCACAGACUAAAUGUCGGUCGGGGAAGAUGUAUUCUUCUCAUAAGAUAUAGUCGGACCUCUCCUUAAUGGGAGCUAGCGGAUGAAGUGAUGCAACACUGGAGCCGCUGGGAACUAAUUUGUAUGCGAAAGUAUAUUGAUUAGUUUUGGAGUACUCGUGGUCG
Procedure, shortened: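 Colonies from six replicate transformations of E. coli BL21(DE3) were pooled and amplicon-sequenced on an Illumina HiSeq 2500. The library placed an intron with all eight P1ex-region nucleotides randomised inside the knt kanamycin-resistance gene on pET-22b(+), and cells grew overnight at 37°C or 30°C on LB agar with or without 25 μg/mL kanamycin (plus 100 μg/mL carbenicillin, 50 μM IPTG, 0.2% rhamnose). Fitness is the DiMSum error-weighted combination of wild-type-normalised replicate fold changes, kanamycin versus none.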

| Sequence | self-splicing fitness (ln) (30 °C) | self-splicing fitness (ln) (37 °C) |
| --- | --- | --- |
| UCCAAGCAAUAUUACGCAAG | -3.86 ± 0.32 | -2.51 ± 0.26 |
| GAACAGCAAUAUUACGGUAU | -0.973 ± 0.053 | -0.269 ± 0.074 |
| ACAUAGCAAUAUUACGCUUC | -3 ± 0.29 | -1.82 ± 0.28 |
| GACAAGCAAUAUUACGCUCA | -0.336 ± 0.056 | 0.274 ± 0.073 |
| CCGGAGCAAUAUUACGUGCC | -2.1 ± 0.38 | -2.94 ± 0.35 |
| GCUGAGCAAUAUUACGGGAU | -2.39 ± 0.14 | -1.34 ± 0.13 |
| AGCCAGCAAUAUUACGGGCC | -2.77 ± 0.2 | -3.49 ± 0.46 |
| UGUAAGCAAUAUUACGUCCG | -0.161 ± 0.12 | 0.473 ± 0.12 |
| UGGUAGCAAUAUUACGGAUA | -1.92 ± 0.24 | -2.72 ± 0.27 |
| ACCGAGCAAUAUUACGUUCA | -1.34 ± 0.13 | -0.705 ± 0.1 |
| CUAGAGCAAUAUUACGCGGC | -0.707 ± 0.19 | 0.756 ± 0.2 |
| UAUCAGCAAUAUUACGGUAA | -0.552 ± 0.13 | -0.308 ± 0.11 |
| GGAUAGCAAUAUUACGCAUG | -0.819 ± 0.12 | 0.00525 ± 0.14 |
| AAUAAGCAAUAUUACGACGA | -0.785 ± 0.11 | -0.362 ± 0.14 |
| CUGAAGCAAUAUUACGUGAA | -2.91 ± 0.23 | -1.93 ± 0.26 |
| GGCCAGCAAUAUUACGAUGG | -4.28 ± 0.33 | -2.67 ± 0.33 |
| GAAAAGCAAUAUUACGAGAG | -3.43 ± 0.28 | -2.48 ± 0.21 |
| AUAGAGCAAUAUUACGGCUA | 0.361 ± 0.077 | 0.0589 ± 0.098 |
| GUUGAGCAAUAUUACGGCCU | -2.03 ± 0.18 | -0.897 ± 0.2 |
| UCGGAGCAAUAUUACGUGGC | – | -1.95 ± 0.38 |
| CAACAGCAAUAUUACGCAGG | -2.19 ± 0.11 | -0.807 ± 0.085 |
| CAGCAGCAAUAUUACGCAUA | -1.81 ± 0.14 | -1.43 ± 0.17 |
| GACAAGCAAUAUUACGUAUG | -2.86 ± 0.11 | -1.23 ± 0.088 |
| GGUAAGCAAUAUUACGUGCA | -0.586 ± 0.089 | -0.233 ± 0.13 |
| AUCGAGCAAUAUUACGCCCG | -3.48 ± 0.36 | -0.807 ± 0.32 |
| CCAAAGCAAUAUUACGGCGG | -3.8 ± 0.15 | -2.48 ± 0.16 |

| Sequence | self-splicing fitness (ln) (30 °C) | self-splicing fitness (ln) (37 °C) |
| --- | --- | --- |
| UGUCAGCAAUAUUACGACGA | -0.0655 ± 0.12 | -1.08 ± 0.12 |
| ACCAAGCAAUAUUACGAGGC | -3.14 ± 0.14 | -2.32 ± 0.22 |
| GUAAAGCAAUAUUACGGCCA | -0.497 ± 0.11 | 0.704 ± 0.17 |
| GUGUAGCAAUAUUACGGGUU | -2.77 ± 0.21 | -1.22 ± 0.17 |
| GUCGAGCAAUAUUACGGCAC | -1.29 ± 0.18 | -0.213 ± 0.2 |
| UUGCAGCAAUAUUACGAUAC | – | -1.74 ± 0.47 |
| GCGGAGCAAUAUUACGCGGC | -3.04 ± 0.48 | – |
| GAGAAGCAAUAUUACGCGUU | -2.08 ± 0.23 | -0.752 ± 0.18 |
| CUCAAGCAAUAUUACGGCAA | -3.15 ± 0.32 | -1.32 ± 0.24 |
| AUGCAGCAAUAUUACGACGC | -1.48 ± 0.11 | -1.32 ± 0.12 |
| UAAGAGCAAUAUUACGGACG | -1.89 ± 0.2 | -1.67 ± 0.26 |
| AGGCAGCAAUAUUACGGGGG | -3.34 ± 0.21 | -2.98 ± 0.23 |
| UCAGAGCAAUAUUACGUAAA | -2.65 ± 0.15 | -1.95 ± 0.25 |
| GUGAAGCAAUAUUACGUUAA | -2.09 ± 0.12 | -1.74 ± 0.14 |
| UAACAGCAAUAUUACGAUGG | -1.82 ± 0.087 | -0.665 ± 0.1 |
| CUCGAGCAAUAUUACGAUGG | -1.83 ± 0.083 | -1.61 ± 0.1 |
| CGUCAGCAAUAUUACGUUGU | -3.9 ± 0.23 | -2.12 ± 0.18 |
| AUCGAGCAAUAUUACGGUUU | -2.08 ± 0.091 | -1.71 ± 0.099 |
| ACAAAGCAAUAUUACGGAGA | -3.37 ± 0.19 | -2.39 ± 0.19 |
| UAUGAGCAAUAUUACGUUUU | -4.02 ± 0.32 | -2.45 ± 0.23 |
| GAGAAGCAAUAUUACGCGGC | -3.03 ± 0.23 | -0.0876 ± 0.18 |
| UGCAAGCAAUAUUACGCGAG | -3.25 ± 0.15 | -2.36 ± 0.16 |
| AAAGAGCAAUAUUACGGACC | – | -1.61 ± 0.3 |
| GGGUAGCAAUAUUACGCGAG | -1.85 ± 0.32 | -0.555 ± 0.18 |
| GACCAGCAAUAUUACGCGCA | -0.663 ± 0.065 | 0.131 ± 0.093 |
| CGUUAGCAAUAUUACGGCGG | -0.628 ± 0.1 | -0.396 ± 0.12 |

| Sequence | self-splicing fitness (ln) (30 °C) | self-splicing fitness (ln) (37 °C) |
| --- | --- | --- |
| GACAAGCAAUAUUACGAGAU | -3.73 ± 0.23 | -2.78 ± 0.23 |
| CCCUAGCAAUAUUACGAUUC | -1.79 ± 0.35 | – |
| CUCCAGCAAUAUUACGCGUC | -3.46 ± 0.28 | – |
| GAUUAGCAAUAUUACGAGCU | -1.23 ± 0.088 | -0.791 ± 0.16 |
| CCAUAGCAAUAUUACGCCUA | -2.85 ± 0.27 | -2.93 ± 0.35 |
| GUCUAGCAAUAUUACGCCAG | -2.46 ± 0.4 | – |
| UCAUAGCAAUAUUACGCGGA | -2.71 ± 0.18 | -0.822 ± 0.11 |
| UUACAGCAAUAUUACGGAAA | -1.42 ± 0.14 | -0.561 ± 0.14 |
| UAAUAGCAAUAUUACGUAGG | -2.37 ± 0.13 | -1.06 ± 0.14 |
| AACGAGCAAUAUUACGGUAU | -4.43 ± 0.22 | -1.85 ± 0.12 |
| CGCCAGCAAUAUUACGUCCG | -0.462 ± 0.1 | -0.546 ± 0.12 |
| CUUGAGCAAUAUUACGGGAA | -3.79 ± 0.42 | -2.73 ± 0.2 |
| CUUCAGCAAUAUUACGCCUG | -0.748 ± 0.074 | 0.268 ± 0.1 |
| UCUUAGCAAUAUUACGUUAA | -2.98 ± 0.26 | -2.67 ± 0.38 |
| CGAAAGCAAUAUUACGACGC | -1.81 ± 0.13 | 0.0494 ± 0.18 |
| CAAGAGCAAUAUUACGGGUA | -3.26 ± 0.4 | -1.64 ± 0.28 |
| UACCAGCAAUAUUACGAAAA | -1.43 ± 0.17 | -1.11 ± 0.13 |
| AUACAGCAAUAUUACGUGUA | -2.3 ± 0.093 | -1.32 ± 0.095 |
| AUUCAGCAAUAUUACGAUAU | -0.41 ± 0.057 | 0.146 ± 0.079 |
| GAGAAGCAAUAUUACGUUAA | -2.68 ± 0.2 | -2.18 ± 0.24 |
| UCUAAGCAAUAUUACGUUUG | -3.95 ± 0.3 | -2.4 ± 0.24 |
| UUGGAGCAAUAUUACGGUGA | -1.27 ± 0.22 | -1.36 ± 0.14 |
| GUGUAGCAAUAUUACGGGUC | -2.47 ± 0.2 | -2.49 ± 0.28 |
| GACCAGCAAUAUUACGCCUC | -1.17 ± 0.097 | -0.623 ± 0.11 |
| UGAAAGCAAUAUUACGUCAG | -1.78 ± 0.13 | -0.368 ± 0.13 |
